Assay results published in publication PMC7961906, “CNBP Binds and Unfolds In Vitro G-Quadruplexes Formed in the SARS-CoV-2 Positive and Negative Genome Strands”.

Assays:
CNBP (ZNF9) [1] = biological target: T1, CNBP (ZNF9) (Homo sapiens, UniProt P62633 1-177); experiment: EMSA; folded in 200 mM Li+; 100 mM LiCl in binding; slightly higher affinity than in K+; EMSA: 20 mM HEPES pH 8.0, 10 mM MgCl2, 1 mM EDTA, 0.5 ug/uL heparin, 1 mM DTT, 1 ug/uL BSA, 10% glycerol, 100 mM KCl or LiCl, 0.75 uM RNA, 30 min 37 C; CD: 10 mM Tris-HCl pH 7.5 + 100/200 mM KCl, protein incubation 30 min 37 C, spectra at 20 C; conditions: protein: recombinant; tags: tag-free (expressed from pET-32a-TEV-CNBP, tag removed); intramolecular G4 (two-quartet)
CNBP (ZNF9) [2] = biological target: T1, CNBP (ZNF9); experiment: CD (G4 unfolding); 200 mM K+ folding; 8 uM, 1:1; EMSA: 20 mM HEPES pH 8.0, 10 mM MgCl2, 1 mM EDTA, 0.5 ug/uL heparin, 1 mM DTT, 1 ug/uL BSA, 10% glycerol, 100 mM KCl or LiCl, 0.75 uM RNA, 30 min 37 C; CD: 10 mM Tris-HCl pH 7.5 + 100/200 mM KCl, protein incubation 30 min 37 C, spectra at 20 C; conditions: protein: recombinant; tags: tag-free (expressed from pET-32a-TEV-CNBP, tag removed); intramolecular G4
CNBP (ZNF9) [3] = biological target: T1, CNBP (ZNF9); experiment: CD (G4 unfolding); 100 mM K+ folding; 8 uM, 1:1; EMSA: 20 mM HEPES pH 8.0, 10 mM MgCl2, 1 mM EDTA, 0.5 ug/uL heparin, 1 mM DTT, 1 ug/uL BSA, 10% glycerol, 100 mM KCl or LiCl, 0.75 uM RNA, 30 min 37 C; CD: 10 mM Tris-HCl pH 7.5 + 100/200 mM KCl, protein incubation 30 min 37 C, spectra at 20 C; conditions: protein: recombinant; tags: tag-free (expressed from pET-32a-TEV-CNBP, tag removed); intramolecular G4
CNBP (ZNF9) [4] = biological target: T1, CNBP (ZNF9); experiment: EMSA; folded in 100 mM Li+; 100 mM LiCl in binding; slightly higher affinity than in K+; EMSA: 20 mM HEPES pH 8.0, 10 mM MgCl2, 1 mM EDTA, 0.5 ug/uL heparin, 1 mM DTT, 1 ug/uL BSA, 10% glycerol, 100 mM KCl or LiCl, 0.75 uM RNA, 30 min 37 C; CD: 10 mM Tris-HCl pH 7.5 + 100/200 mM KCl, protein incubation 30 min 37 C, spectra at 20 C; conditions: protein: recombinant; tags: tag-free (expressed from pET-32a-TEV-CNBP, tag removed); intramolecular G4; minor self-assembled multimer band in Li+
CNBP (ZNF9) [5] = biological target: T1, CNBP (ZNF9); experiment: EMSA; folded in 200 mM Li+ or K+; EMSA: 20 mM HEPES pH 8.0, 10 mM MgCl2, 1 mM EDTA, 0.5 ug/uL heparin, 1 mM DTT, 1 ug/uL BSA, 10% glycerol, 100 mM KCl or LiCl, 0.75 uM RNA, 30 min 37 C; CD: 10 mM Tris-HCl pH 7.5 + 100/200 mM KCl, protein incubation 30 min 37 C, spectra at 20 C; conditions: protein: recombinant; tags: tag-free (expressed from pET-32a-TEV-CNBP, tag removed); no G4 formed; predicted 4-bp stem-loop

T1 sequence (P62633 whole entry): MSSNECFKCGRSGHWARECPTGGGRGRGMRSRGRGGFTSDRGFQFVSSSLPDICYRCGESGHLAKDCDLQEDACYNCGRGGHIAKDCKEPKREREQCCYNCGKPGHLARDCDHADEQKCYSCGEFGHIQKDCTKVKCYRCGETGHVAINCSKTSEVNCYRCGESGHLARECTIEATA

Binder: GGUAAUAAAGGAGCUGGUGG (structured_RNA) [+644]
- binding result (CNBP (ZNF9) [1]): binds

Binder: GGAUCUGGGUAAGGAAGG (structured_RNA) [-13,963]
- binding result (CNBP (ZNF9) [2]): binds

Binder: GGAUAUGGUUGGUUUGG (structured_RNA) [-23,877]
- binding result (CNBP (ZNF9) [3]): binds

Binder: GGAGGAGGUGUUGCAGGA (structured_RNA) [+3467]
- binding result (CNBP (ZNF9) [4]): binds

Binder: GGCUGGCAAUGGCGG (structured_RNA) [+28,903]
- binding result (CNBP (ZNF9) [5]): no binding
